{"source": "paper PMC11653685", "about": "“Crystal structure of Alzheimer's disease phospholipase D3 provides a molecular basis for understanding its normal and pathological functions” (The Febs Journal, 2024)", "proteins": {"B1": {"name": "human phospholipase D3 (hPLD3) luminal domain, residues N71-L490 (domain or fragment, UniProt Q8IV08 71-490, looked up)", "chain": "NQRPAPCYDPCEAVLVESIPEGLDFPNASTGNPSTSQAWLGLLAGAHSSLDIASFYWTLTNNDTHTQEPSAQQGEEVLRQLQTLAPKGVNVRIAVSKPSGPQPQADLQALLQSGAQVRMVDMQKLTHGVLHTKFWVVDQTHFYLGSANMDWRSLTQVKELGVVMYNCSCLARDLTKIFEAYWFLGQAGSSIPSTWPRFYDTRYNQETPMEICLNGTPALAYLASAPPPLCPSGRTPDLKALLNVVDNARSFIYVAVMNYLPTLEFSHPHRFWPAIDDGLRRATYERGVKVRLLISCWGHSEPSMRAFLLSLAALRDNHTHSDIQVKLFVVPADEAQARIPYARVNHNKYMVTERATYIGTSNWSGNYFTETAGTSLLVTQNGRGGLRSQLEAIFLRDWDSPYSHDLDTSADSVGNACRLL", "modifications": "N-linked GlcNAc at N236 and N284 (seen in the electron density)", "notes": "also called soluble form of the enzyme; source: Expi293 GnTI- cells, transfected, secreted; purified from culture supernatant (HisTrap excel, Superdex 200 SEC); not shown: His6, N-terminal, kept"}}, "biological_target": "the molecule itself", "experiment": "crystal structure; hPLD3 luminal domain with the hexa-His tag left on; crystals grown at 20 °C in 0.17 M ammonium sulfate, 15% glycerol, 25% PEG 4000; 2.3 Å; two molecules in the asymmetric unit", "data": [{"protein": "B1", "values": [{"measurement": "stoichiometry N", "result": 2}]}]}
